Results from doi:10.1101/2020.11.18.389114.
Where no end group is shown, it is not given here. [ ]: non-standard residue; d: D form. The star is where a group is joined. FITC = O=C1OC2(c3ccc(O)cc3Oc3cc(O)ccc32)c2ccc(NC(=S)*)cc21; pT = C[C@@H](OP(=O)(O)O)[C@H](N)C(=O)O; pS = N[C@@H](COP(=O)(O)O)C(=O)O; Aβ = not defined here

Each binder was assayed against MpIBP_RIII1-4 (Marinomonas primoryensis ice-binding protein, Region III domains 1-4), truncated construct ending at N507 (Marinomonas primoryensis) (assay: ITC).
AGYTD [AGYTD (unlabelled peptide)] showed a Kd of 67 nM and a stoichiometry N of 1.
Binder AGATD [AGATD (unlabelled peptide)] has a Kd of 86 nM and a stoichiometry N of 1.
AGYTS [AGYTS (unlabelled peptide)] gave a Kd of 59 nM and a stoichiometry N of 1.
For AGAGD [AGAGD (unlabelled peptide)], the Kd was 1900 nM and the stoichiometry N was 1.

These binders were tested against MpIBP_RIII1-4 (Marinomonas primoryensis ice-binding protein, Region III domains 1-4), truncated construct ending at N507 (Marinomonas primoryensis) (assay: fluorescence polarisation).
{FITC}-AGAGD [FITC-AGAGD] gave an EC50 of 1500 nM.
For {FITC}-AGAPD [FITC-AGAPD], the EC50 was 4600 nM.
In the case of {FITC}-AGASD [FITC-AGASD], the EC50 is reported as 310 nM.
{FITC}-AGAFD [FITC-AGAFD] gave an EC50 of 180 nM.
{FITC}-AGAYD [FITC-AGAYD] gave an EC50 of 170 nM.
{FITC}-AGATD [FITC-AGATD] gave an EC50 of 89 nM.

Target: MpIBP_RIII1-4 (Marinomonas primoryensis ice-binding protein, Region III domains 1-4), truncated construct ending at N507 (Marinomonas primoryensis)
Assay: fluorescence polarisation
Remark: another data set of the same source
For {FITC}-AGAGF [FITC-AGAGF], the EC50 was 7200 nM.
With {FITC}-AGAGD [FITC-AGAGD] the EC50 was 3200 nM.
For {FITC}-IKARAS[pS]SPVILVGTHLD-OH [FITC-IKARAS(pS)…], the EC50 was 2700 nM.
For {FITC-Aβ}-GPDD (reading uncertain; also: printed as FITC-AβGPDD) [FITC-AβGPDD], the fold by which FITC-AβGPDSD binds stronger than FITC-AβGPDD was 20 fold.
For {FITC}-AGCTD [FITC-AGCTD], the EC50 was 23 nM.
With {FITC}-AGYTS [FITC-AGYTS] the EC50 was 30 nM.
{FITC-Aβ}-GPDSN (reading uncertain; also: printed as FITC-AβGPDSN) [FITC-AβGPDSN] showed an EC50 of 270 nM.
With {FITC}-RHKKLMFK[pT]EGPDSD-OH [FITC-RHKKLMFK(pT)EGPDSD] the EC50 was 690 nM.
{FITC}-AGAGI [FITC-AGAGI] was tested, and the EC50 was 4400 nM.
Work on {FITC}-AGYTD [FITC-AGYTD] yielded an EC50 of 29 nM.
In the case of {FITC}-AGWTD [FITC-AGWTD], the EC50 is reported as 23 nM.
{FITC-Aβ}-DSTPD (reading uncertain; also: printed as FITC-AβDSTPD) [FITC-AβDSTPD] showed an EC50 of 27000 nM and an affinity of 26 µM.
Work on {FITC}-AGAGY [FITC-AGAGY] yielded an EC50 of 4600 nM.
Binder {FITC-Aβ}-GPDSD (reading uncertain; also: printed as FITC-AβGPDSD) [FITC-AβGPDSD] has an EC50 of 160 nM.
{FITC-Aβ}-DSTD (reading uncertain; also: printed as FITC-AβDSTD) [FITC-AβDSTD] was tested, and the EC50 was 110 nM.
With {FITC}-AGATD [FITC-AGATD] the EC50 was 72 nM.
